Experiments:
[1] = target: T1, Human FGB-rCd4; experiment: ELISA (DELFIA), antigen coated on the well, purified Fab at 50 nM, detected with anti-kappa or anti-lambda mAb and Europium-conjugated anti-mouse mAb
T1 construct: Not the same construct as m1, which has the FBG at the C terminus; also called human TNC FBG-rCD4; human tenascin-C FBG-rCd4-His (FBG at the N terminus of the rat Cd4 tag); not shown: rat Cd4 (domains 3 and 4) tag, the C-terminal His6 tag and the vector-derived junction residues of pBIOCAM4
T1 chain: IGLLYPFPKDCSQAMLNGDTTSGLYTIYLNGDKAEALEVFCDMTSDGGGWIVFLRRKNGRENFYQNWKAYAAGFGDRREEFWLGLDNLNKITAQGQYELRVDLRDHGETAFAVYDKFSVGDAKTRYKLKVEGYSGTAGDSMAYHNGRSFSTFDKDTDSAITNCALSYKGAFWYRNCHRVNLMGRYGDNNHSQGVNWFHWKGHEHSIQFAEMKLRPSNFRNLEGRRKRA

[2] = target: T2, human tenascin-R rCd4-His-FBG (rat; human, UniProt P05540 207-392, limits assumed); experiment: SPR (BIAcore), Fab captured (23 nM) on anti-CL kappa / anti-CL lambda CM5 sensor chip, rCd4-FBG injected up to 2 µM; steady-state plot of response against concentration [Con't]
T2 construct: domain: domains 3 and 4; C-terminal FBG fusion; also called Hu TNR; human TNR rCd4-His-FBG; not shown: 6His tag
T2 sequence (chain (part 1 of 2)): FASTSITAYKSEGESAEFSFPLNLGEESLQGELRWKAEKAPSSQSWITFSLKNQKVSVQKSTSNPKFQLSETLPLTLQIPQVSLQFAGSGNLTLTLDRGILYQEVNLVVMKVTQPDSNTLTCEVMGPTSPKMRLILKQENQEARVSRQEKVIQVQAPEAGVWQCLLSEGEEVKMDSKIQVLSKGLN
T2 sequence (chain (part 2 of 2)): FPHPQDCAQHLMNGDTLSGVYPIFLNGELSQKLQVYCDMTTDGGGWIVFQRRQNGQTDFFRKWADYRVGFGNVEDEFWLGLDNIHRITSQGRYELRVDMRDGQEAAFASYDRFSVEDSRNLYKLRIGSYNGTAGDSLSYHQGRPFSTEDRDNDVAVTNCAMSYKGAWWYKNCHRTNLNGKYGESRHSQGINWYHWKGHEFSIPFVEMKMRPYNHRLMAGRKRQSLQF
Experimental: (§1) Experiments were performed using a BIAcore T100 instrument with CM5 sensor chip according to the protocol provided with the Human Fab Capture Kit (GE, 28-9583-25). […] After reference signal subtraction, the data was fitted to a global 1:1 fit using the T100 BIAevaluation software (FIGS. 6 a-d).

[3] = target: T2, human tenascin-R rCd4-His-FBG; experiment: SPR, captured Fab, 25 C
Experimental: as §1

[4] = target: T3, mouse tenascin-C rCd4-His-FBG (rat; mouse, UniProt P05540 207-392, limits assumed); experiment: SPR, captured Fab, 25 C
T3 construct: domain: domains 3 and 4; C-terminal FBG fusion; biotinylated in the ELISA screen; also called Mu TNC; mouse TNC rCd4-His-FBG; not shown: 6His tag
T3 sequence (chain (part 1 of 2)): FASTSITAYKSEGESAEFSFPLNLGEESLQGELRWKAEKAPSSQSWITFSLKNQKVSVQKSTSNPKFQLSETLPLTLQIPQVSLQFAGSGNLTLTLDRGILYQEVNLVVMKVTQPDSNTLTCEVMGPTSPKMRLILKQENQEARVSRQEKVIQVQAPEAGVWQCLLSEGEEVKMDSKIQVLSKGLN
T3 sequence (chain (part 2 of 2)): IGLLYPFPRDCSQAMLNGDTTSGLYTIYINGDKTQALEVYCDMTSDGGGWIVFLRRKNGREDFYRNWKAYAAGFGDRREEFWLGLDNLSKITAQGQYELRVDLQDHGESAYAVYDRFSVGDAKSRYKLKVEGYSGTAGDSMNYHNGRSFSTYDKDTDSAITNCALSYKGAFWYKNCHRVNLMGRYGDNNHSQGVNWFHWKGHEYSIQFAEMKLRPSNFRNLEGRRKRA
Experimental: as §1

[5] = target: T4, human tenascin-C rCd4-His-FBG (rat; human, UniProt P05540 207-392, limits assumed); experiment: SPR, captured Fab, 25 C
T4 construct: domain: domains 3 and 4; C-terminal FBG fusion; biotinylated in the ELISA and HTRF screens; also called Hu TNC; human TNC rCd4-His-FBG; not shown: 6His tag
T4 sequence (chain (part 1 of 2)): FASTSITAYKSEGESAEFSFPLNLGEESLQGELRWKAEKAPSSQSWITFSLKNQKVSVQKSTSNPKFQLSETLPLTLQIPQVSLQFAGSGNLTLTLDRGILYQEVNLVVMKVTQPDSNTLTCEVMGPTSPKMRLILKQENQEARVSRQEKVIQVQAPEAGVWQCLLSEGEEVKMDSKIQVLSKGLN
T4 sequence (chain (part 2 of 2)): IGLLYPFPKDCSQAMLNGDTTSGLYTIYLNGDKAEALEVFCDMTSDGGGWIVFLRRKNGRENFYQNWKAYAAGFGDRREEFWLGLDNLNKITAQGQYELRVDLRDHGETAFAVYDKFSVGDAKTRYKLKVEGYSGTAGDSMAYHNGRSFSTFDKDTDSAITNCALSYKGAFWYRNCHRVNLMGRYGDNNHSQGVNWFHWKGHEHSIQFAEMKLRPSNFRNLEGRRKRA
Experimental: as §1

[6] = target: T5, human Fc-His-FBG (human, UniProt P24821 1974-2201); experiment: cell-based or functional assay
T5 sequence: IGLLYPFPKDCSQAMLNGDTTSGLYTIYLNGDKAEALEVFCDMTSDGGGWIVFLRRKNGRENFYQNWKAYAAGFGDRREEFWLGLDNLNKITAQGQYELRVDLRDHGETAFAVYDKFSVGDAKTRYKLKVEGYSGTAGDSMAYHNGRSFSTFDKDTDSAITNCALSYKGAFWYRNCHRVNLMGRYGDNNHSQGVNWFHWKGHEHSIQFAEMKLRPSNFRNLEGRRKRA

[7] = target: T2, human tenascin-R rCd4-His-FBG; experiment: SPR steady state, captured Fab, 25 C
Experimental: as §1

[8] = target: T3, mouse tenascin-C rCd4-His-FBG; experiment: SPR steady state, captured Fab, 25 C
Experimental: as §1

B1: Fab D8 (Fab, V domains shown)
VH: EVQLVQSGAEVKKPGASVKVSCKASGYTFTSYGISWVRQAPGQGLEWMGWISAYNGNTNYAQKLQGRVTMTTDTSTSTAYMELRSLRSDDTAVYYCARNQDSSSDYWGQGTLVTVSS
VL: DIQMTQSPASLPTSVGDRVTITCRASQYIQGFLNWYQQKPGKAPKLLIYDASNLETGVPSRFSGSGSGTDFTLTISSLQPEDFATYYCQQSYSTLQTFGQGTKVDIKR
notes: monomeric Fab
[1]
  binding result: binds
[2]
  Kd: 1110 nM
[3]
  Kd: 1030 nM
  koff: 0.57 s⁻¹
  kon: 555000 M⁻¹ s⁻¹
[4]
  Kd: 48.4 nM
  koff: 0.0716 s⁻¹
  kon: 1.48e+06 M⁻¹ s⁻¹
[5]
  Kd: 8.49 nM
  koff: 0.0131 s⁻¹
  kon: 1.54e+06 M⁻¹ s⁻¹
[6]
  IC50, inhibition of Fc-His-HuFBG-evoked IL-8 release, THP1-Blue cells: 14.9 nM
  IC50, inhibition of Fc-His-HuFBG-evoked alkaline phosphatase, THP1-Blue cells: 7.2 nM
[7]
  Kd: 913 nM
[8]
  Kd: 41.2 nM

From US20170306005A1 (NASCIENT, published 2017)
